Measurements as given in patent US20080131497A1, “Formulations of DNase and Methods of Use Thereof” (priority 2006, published 2008).
Where a chain is given by its changes, count along the chain named.

What was measured:
[1] = administered by inhalation, CF patients; cited from earlier work
[2] = tested on: colony forming units (CFU); conditions: administered by inhalation, CF patients; cited from earlier work
[3] = tested on: DNA; assay: Enzymatic activity of human DNase forms, methyl green (MG) assay; format: biochemical
Excerpt: Kurnick, Arch. Biochem. 29:41 (1950). […] Thus, by combining the purified deamidated DNases and the purified non-deamidated DNase of the present invention in various proportions, it is possible to prepare pharmaceutical compositions of human DNase having any desired specific activity in the range between the specific activities of the individual components, as may be optimal for treating particular disorders.

[4] = tested on: DNA; assay: DNase viscosity assay (DNA digestion); format: biochemical; conditions: DNase 1 μg/mL, 2 mg/mL DNA, 1 mM Ca2+ and Mg2+
Procedure: At specific time points aliquots of samples were taken from the vials, diluted and analyzed for DNase activity. Enzymatic activity of DNase was determined by viscosity assay. DNA decomposition by DNase results in decrease of viscosity. DNase at 1 μg/mL normally can digest 2 mg/mL DNA resulting in decrease of viscosity from ˜25 cP (5 rpm) to 10 cP in ˜10 min (and to approaching 1 cP in longer time) in presence of 1 mM Ca^2+ and Mg^2+ ions. Kinetics of viscosity change due to degradation of DNA was measured by Brookfield D-II+ Pro viscosimeter at 5 rpm. Results showing increased stability for DNase when stored in the presence of empty liposomes or liposomal encapsulated antiinfective are presented in FIG. 2.
Activity was determined as a reciprocal value of a time to reduce viscosity in half, normalized to activity of standard DNase solution (A=T1/2^std/T1/2). The two curves in FIG. 3 illustrate an activity assay and how T1/2 is determined. The curves represent typical change in viscosity of DNA solution after DNase is added. v1 is viscosity at 1 minute, when the first measurement point is taken. T1/2 is the time interval after adding DNase required to reach viscosity level equal to half of v1.

[5] = tested on: DNA; assay: Enzymatic activity of doubly deamidated DNase; format: biochemical; conditions: deamidated at Asn 7 and Asn 74

## NC[C@H]1O[C@H](O[C@H]2[C@H](O)[C@@H](O[C@H]3O[C@H](CO)[C@@H](O)[C@H](N)[C@H]3O)[C@H](N)C[C@@H]2N)[C@H](N)C[C@@H]1O [tobramycin, reference compound]
[1]
  improvement in FEV1: approximately 10%
[2]
  reduction in colony forming units (CFU): about 2 log units

B1: deamidated human DNase: human DNase deamidated at the asparagine residue at position 74 of native mature human DNase (protein, UniProt P24855 23-282, looked up, variant N74D)
Deoxyribonuclease-1: LKIAAFNIQTFGETKMSNATLVSYIVQILSRYDIALVQEVRDSHLTAVGKLLDNLNQDAPDTYHYVVSEPLGRDSYKERYLFVYRPDQVSAVDSYYYDDGCEPCGNDTFNREPAIVRFFSRFTEVREFAIVPLHAAPGDAVAEIDALYDVYLDVQEKWGLEDVMLMGDFNAGCSYVRPSQWSSIRLWTSPTFQWLIPDSADTTATPTHCAYDRIVVAGMLLRGAVVPDSALPFNFQAAYGLSDQLAQAISDHYPVEVMLK
modifications: deamidation
notes: human DNase deamidated at the asparagine residue at position 74 of native mature human DNase
[3]
  enzymatic activity compared to non-deamidated human DNase: just over half

B2: DNase: recombinant human deoxyribonuclease I, an enzyme which selectively cleaves DNA; standard in viscosity assay (protein, UniProt P24855 23-282, looked up)
Deoxyribonuclease-1: B1 Deoxyribonuclease-1 with D74N
[4]
  time for decrease of viscosity from ~25 cP (5 rpm) to 10 cP: ~10 min

B3: Pulmozyme: highly purified, commercially available solution of DNase (from Genentech); recombinant human DNase (protein, UniProt P24855 23-282, looked up)
Deoxyribonuclease-1: B1 Deoxyribonuclease-1 with D74N
[1]
  improvement in FEV1: approximately 10%

B4: doubly deamidated DNase: human DNase deamidated at asparagine position 7 in addition to position 74 (protein, UniProt P24855 23-282, looked up, variant N7D N74D)
Deoxyribonuclease-1: B1 Deoxyribonuclease-1 with N7D
modifications: deamidation
[5]
  enzymatic activity: enzymatically inactive
